Laboratory results as given in PMC5546038, “Engineering the fragment crystallizable (Fc) region of human IgG1 multimers and monomers to fine-tune interactions with sialic acid-dependent receptors” (The Journal of Biological Chemistry, 2017).

T1: hexa-Fc N297A/N563A (human)
T1 chain: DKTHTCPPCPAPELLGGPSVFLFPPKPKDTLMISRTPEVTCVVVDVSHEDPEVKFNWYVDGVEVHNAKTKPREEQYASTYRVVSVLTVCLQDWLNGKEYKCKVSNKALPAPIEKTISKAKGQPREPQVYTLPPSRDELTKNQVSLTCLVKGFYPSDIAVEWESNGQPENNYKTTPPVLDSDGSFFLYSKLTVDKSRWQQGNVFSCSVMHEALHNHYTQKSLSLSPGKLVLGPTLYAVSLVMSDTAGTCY


Assays:
hexa-Fc N297A/N563A = target: T1, hexa-Fc N297A/N563A; assay: SEC + other: non-reducing SDS-PAGE; molecular mass ∼650–700 kDa; SEC shown for N563A (supplemental Fig. S2); sizes counted in Fc units of two chains; details: both partners purified
[1] = target: the molecule itself; assay: as above

Row | Binder | stoichiometry N (hexa-Fc N297A/N563A) | stoichiometry N [1]
1 | hexa-Fc N297A/N563A (other, no N-glycans; multimer, approximately dodecamers of Fc / no N-glycans; multimer, approximately dodecamers of Fc) DKTHTCPPCPAPELLGGPSVFLFPPKPKDTLMISRTPEVTCVVVDVSHEDPEVKFNWYVDGVEVHNAKTKPREEQYASTYRVVSVLTVCLQDWLNGKEYKCKVSNKALPAPIEKTISKAKGQPREPQVYTLPPSRDELTKNQVSLTCLVKGFYPSDIAVEWESNGQPENNYKTTPPVLDSDGSFFLYSKLTVDKSRWQQGNVFSCSVMHEALHNHYTQKSLSLSPGKLVLGPTLYAVSLVMSDTAGTCY | ~12 | 
2 | hexa-Fc D221N/N297A/N563A (other, N-linked glycan at Asn-221) NKTHTCPPCPAPELLGGPSVFLFPPKPKDTLMISRTPEVTCVVVDVSHEDPEVKFNWYVDGVEVHNAKTKPREEQYASTYRVVSVLTVCLQDWLNGKEYKCKVSNKALPAPIEKTISKAKGQPREPQVYTLPPSRDELTKNQVSLTCLVKGFYPSDIAVEWESNGQPENNYKTTPPVLDSDGSFFLYSKLTVDKSRWQQGNVFSCSVMHEALHNHYTQKSLSLSPGKLVLGPTLYAVSLVMSDTAGTCY |  | ~12
